Results on 29 sequences are retold here after the supplement of paper PMC10567573.

± gives the standard deviation.

This series can be described thus: protein stability index of a GFP-peptide fusion (GPS, HEK-293T) (PSI 1-6); higher = more stable.
The mark [1] stands for this setting: treatment: DMSO, c terminus: a fixed tail appended.
[2] abbreviates: treatment: MLN4924 1 uM, 8 h, c terminus: a fixed tail appended.
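Also: 24-mer peptide tiles fused after GFP, lentivirally expressed, FACS-sorted into six equal bins by GFP/DsRed ratio, decoded by Illumina sequencing, PSI is the read-weighted mean bin number.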

For the sequence DVGDWRKNIEEKSGMEGRKKMFES [TNNI2], the protein stability index by setting is: under setting [1], 4.3 ± 0.14; under setting [2], 4.38 ± 0.25.

KLIKCDEIQVDSEEPVFEAVINWV [KLHL12]: the protein stability index was found to be 2.15 ± 0.26 under setting [1] and 2.4 ± 0.36 under setting [2].

On to FKKTAYELLDEKLLARGTMQPFNY [FEM1A], for which the protein stability index by setting is: under setting [1], 2.37 ± 0.46; under setting [2], 2.61 ± 0.17.

Consider DWRKNIEEKSGMEGRKKMFESES [TNNI2], for which the protein stability index was 3.04 ± 0.93 (treatment: DMSO, c terminus: native) and 3.86 ± 0.92 (treatment: MLN4924 1 uM, 8 h, c terminus: native).

For the sequence CVNYEGQSAYDVADMLKQYFRDLP [DLC1], the protein stability index amounted to 2.54 ± 0.21 under setting [1] and 2.65 ± 0.32 under setting [2].

As for TGMPMMPQQPVMFAQPMMRPPFGA [SNAP91], the protein stability index under setting [1] is 2.97 ± 0.064 and the protein stability index under setting [2] is 2.67 ± 0.33.

As to INVSKGINHLLKSPFSVHPKTGRI [PRIM1], the protein stability index runs as follows: under setting [1], 2.62 ± 0.5; under setting [2], 2.65 ± 0.37.

Consider KQRSVCTWGKNKPGIGAVILKRFC [FAN1], for which the protein stability index is, setting by setting: under setting [1], 1.99 ± 0.31; under setting [2], 2.02 ± 0.15.

The sequence APPPRDYTYRDYGHSSSRDDYPSR [RBMX] came in with a protein stability index under setting [1] of 4.43 ± 0.21 and a protein stability index under setting [2] of 4.32 ± 0.078.

SGLGYIAGSKVKDMAGDWHWALRV [SPNS1]: the protein stability index was 2.64 ± 0.74 under setting [1] and 2.38 ± 0.3 under setting [2].

Regarding GNFDWVGNDFTQNAGTGLVINQAD [PLD5], the protein stability index under setting [1] is 4.7 ± 0.69 and the protein stability index under setting [2] stood at 4.47 ± 0.27.

Take RPWRAGVLAEGDNASRSLYPDAED [PSD2]: the protein stability index was 5.16 ± 0.2 under setting [1] and 5.05 ± 0.16 under setting [2].

Take TDRDEGANGEVTYSFRKLPDTQLL [PCDHGA10]: the protein stability index came out at 4.44 ± 0.13 under setting [1] and 4.41 ± 0.22 under setting [2].

GSLCAIAGVLTIALPVPVIVSNFN [KCNA4]: the protein stability index is 3.33 ± 0.42 under setting [1] and 3.13 ± 0.36 under setting [2].

With VIAYDHSRVLLSAIEGIPGSDYVN [PTPRD], the protein stability index under setting [1] worked out at 1.89 ± 0.5 and the protein stability index under setting [2] amounted to 1.79 ± 0.28.

In the case of QAFRAIDRGDYYLEGYRDNAYKDL [PCMTD1], the protein stability index came out at 2.85 ± 0.19 under setting [1] and 2.98 ± 0.53 under setting [2].

In the case of PDLTQAPSSLMETLEQHLNTLEGK [SNAP91], the protein stability index runs as follows: under setting [1], 4.77 ± 0.35; under setting [2], 5.08 ± 0.21.

For the sequence LKLMVNVCGHTLCESCVDLLFVRG [MNAT1], the protein stability index stood at 3.35 ± 0.92 under setting [1] and 3.27 ± 0.44 under setting [2].

In turn, MSRRTRCEDLDELHYQDTDSDVPE [MYBL2] returned a protein stability index under setting [1] of 5.33 ± 0.2 and a protein stability index under setting [2] of 5.59 ± 0.2.

RDSYGGPPRREPLPSRRDVYLSPR [RBMX]: the protein stability index came to 3.69 ± 0.36 under setting [1] and 3.97 ± 0.2 under setting [2].

Take QQDDSDEYDDDDSAASTSFQPQPV [ZNF207]: the protein stability index reads like this: under setting [1], 5.4 ± 0.18; under setting [2], 5.37 ± 0.18.

In the case of DSFTTNKEHAVTMPCTWVMACAYA [GNB5], the protein stability index was 2.73 ± 0.79 under setting [1] and 2.53 ± 0.58 under setting [2].

In the case of LQAPFLPPKAPPPVIKIPECPSMG [RHOBTB1], the protein stability index runs as follows: under setting [1], 3.6 ± 0.23; under setting [2], 3.53 ± 0.57.

For ETSYQQREERLRRENEELSARYLS [FBF1], the protein stability index reads like this: under setting [1], 4.79 ± 0.2; under setting [2], 4.89 ± 0.17.

In the case of KGVNRKLGRTGLYPSYKVREKIET [FUT8], the protein stability index under setting [1] came to 3.2 ± 0.31 and the protein stability index under setting [2] stood at 3.4 ± 0.22.

Consider GMDFHRFYFENALSKSNKPIHTII [CAMK2D], for which the protein stability index is, setting by setting: under setting [1], 2.94 ± 1.8; under setting [2], 2.06 ± 1.1.

Regarding SGGGGSSSNFHINVEESVDGQVVS [KRT15], the protein stability index worked out at 5.26 ± 0.1 under setting [1] and 5.21 ± 0.26 under setting [2].

Turning to RQVVQDLLKAGAEVNVLNDMRDTP [OSBPL1A], the protein stability index runs as follows: under setting [1], 4.45 ± 0.21; under setting [2], 4.24 ± 0.25.

As to MQQLYQVQLAQQQAALQKQQEVVV [ACBD3], the protein stability index turned out to be 2.96 ± 0.19 under setting [1] and 3.05 ± 0.22 under setting [2].
